PMC7255924

Biological target: P1 adhesin (AgI/II, SpaP, PAc) A3VP1 polypeptide (UniProt P23504)
Assay: ITC
Details: pH 5; 25°C; 100 mM NaCl; pH 5: 10 mM MES; pH 6: 50 mM sodium phosphate

P1 adhesin (AgI/II, SpaP, PAc) C3 domain
KD: 35.2 ± 7.0 µM
